For two molecules, binding signal and Kd results are on record in article PMC3030368.

One series addresses T1, Nab3 RRM (Saccharomyces cerevisiae, UniProt P38996 321-415).
T1 sequence: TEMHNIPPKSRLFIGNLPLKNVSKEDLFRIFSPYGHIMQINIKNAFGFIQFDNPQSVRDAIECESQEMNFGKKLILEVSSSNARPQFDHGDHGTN
Description: fluorescence anisotropy.

A further series concerns the target T2, Nrd1 RRM (UniProt P53617 340-410).
T2 sequence: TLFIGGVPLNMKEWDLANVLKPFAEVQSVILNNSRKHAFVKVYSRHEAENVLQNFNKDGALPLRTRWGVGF
Description: fluorescence anisotropy. For orientation: Polarisation of emitted light reports the rotation of a fluorescent probe.

The Kd is the free concentration of one partner at which half of the binding sites on the other are occupied at equilibrium, for simple one-to-one binding.

For the molecule UCUU (ssRNA) [UCUU (FA)], in the series with Nab3 RRM, the binding signal was ~10 fold weaker than snR47 (1 order of magnitude; Kd only in figure).

As to GUAA (ssRNA), the binding signal with Nab3 RRM is > 6 fold lower affinity than UCUU. In addition, in the series with Nrd1 RRM, binding was characterised by a dissociation constant (Kd) of 66 ± 1 µM.
